Measurements reported in publication PMC12444563 (ACS Omega, 2025).
Like-named read-outs stand apart in the source and are kept apart here. Starred links: 1 amine or outer side, 2 acyl side, 3 side chain; linkers in the order of their positions; H or OH if unused. Non-standard residues stand in square brackets, D forms with d. Residues, ends and D or L forms follow the SMILES beside them. *: point of attachment. Paclitaxel(2'-OCO-DMEDA) = CC(=O)O[C@H]1C(=O)[C@@]2(C)[C@H]([C@H](OC(=O)c3ccccc3)[C@]3(O)C[C@H](OC(=O)[C@H](OC(=O)N(C)CCN(C)*)[C@@H](NC(=O)c4ccccc4)c4ccccc4)C(C)=C1C3(C)C)[C@]1(OC(C)=O)CO[C@@H]1C[C@@H]2O; Fmoc = O=C(OCC1c2ccccc2-c2ccccc21)*; PABC = O=C(OCc1ccc(N[*:1])cc1)[*:2]

Columns and labels:
[1] = molecular target: T1, bovine spleen Cathepsin B (Bos taurus, UniProt P07688); test: Preliminary Cathepsin B cleavage assay for protocol validation, HPLC vs UHPLC-HRMS; type: biochemical; details: for % residual compound, HRMS: UHPLC-HRMS (Orbitrap) detection; for % residual compound, HPLC: analytical HPLC detection
T1 construct: bovine spleen Cathepsin B (SigmaAldrich C6286, ≥10 units/mg protein); purchased SigmaAldrich C6286; host or cells: bovine spleen (tissue-derived)
Procedure: The Cathepsin B cleavage assay was performed by incubating compounds 1–4 at 37 °C under gently shaking conditions in the presence of the active form of Cathepsin B. More specifically, 122.4 μL of an enzyme-activating solution (composed of 7.48 mg of L-cysteine dissolved in 2 mL of a buffer solution containing 20 mM NaOAc, 1 mM EDTA, pH 5.4 to give a final cysteine concentration of 30.88 mM) was mixed with 12.6 μL of enzyme stock solution, previously prepared by solubilization of bovine spleen Cathepsin B (SigmaAldrich C6286, ≥10 units/mg protein) in 1 mL of buffer solution (without cysteine) to give a concentration of enzyme stock solution of 12 units/mL. After the dilution, the final concentration of Cathepsin B was 1.12 u/mL. Then, the diluted enzyme solution was incubated at 37 °C for 15 min to activate Cathepsin B. After 15 min, 6 μL of 117 μM compound solution, previously prepared by diluting 5.85 μL of 1 mM stock solution of the compound in 44.15 μL of dry DMSO (giving a 117 μM solution), was added to the test tube and the cleavage assay solution was incubated at 37 °C under gentle shaking conditions. Sample aliquots (10 μL) were taken out at 15, 30 min, and 1, 2, 4, and 24 h and quenched with 10 μL of MeOH+1% formic acid. The solutions were then centrifuged for 10 min at 6000 rpm. Blank solutions were prepared for each compound by dilution of 6 μL of a 117 μM compound solution into 135 μL of an enzyme-activating solution. UHPLC-MS analyses were carried out using a Vanquish UHPLC System (Thermo Fisher Scientific) and Orbitrap Exploris 120 (Thermo Fisher Scientific). Thermo Scientific Xcalibur software was used to control the instruments and acquire the data. Freestyle 1.8 software was used for processing the data. UHPLC chromatographic separations were performed on a reversed-phase column Accucore C18 50 × 2.1 mm, 2.6 μm (Thermo Fisher Scientific). A gradient system was used with the mobile phase consisting of solvent A: H2O + 0.05% formic acid and solvent B: acetonitrile. The areas of the peak of compounds 1–4 in the extracted ion chromatogram were used to evaluate the kinetics of the cleavage process. The percentage of residual compound was calculated as the ratio between the areas of the peak of the full compound at the desired time point and in the blank analysis. %Residualcompound=areacompoundatthedesiredtimepoint/areacompoundintheblanksolution×100
Based on the similarity of the Cathepsin B recognized sequence GFLG to GPLG, we inferred that the latter could also be recognized by the same lysosomal enzyme. Therefore, a Cathepsin B cleavage assay for compound 1 was planned, and the experiment was designed to focus on a short incubation time (up to 4 h) to better mimic the fast transient and dynamic environment of drug clearance and activation generally occurring in in vivo conditions. An Orbitrap mass analyzer was chosen to analyze the final incubated solution due to its higher sensitivity compared to traditional HPLC methods, thereby allowing precise evaluation of the drug release kinetics even at low compound concentrations. At first, to validate the designed Orbitrap-protocol over the HPLC protocols generally reported in the literature, we initially performed the cleavage assay on compound 4 containing the VA sequence, for which the recognition by the Cathepsin B enzyme is well documented. ,− For instance, compound 4 was incubated at 37 °C with a sodium acetate buffer solution (final concentration of 4: 5 μM) containing the active form of the Cathepsin B enzyme, and diluted aliquots at 0–30–60–120 and 240 min were collected and analyzed by a UHPLC-Orbitrap instrument and, in parallel, by analytical HPLC. As shown in Figure S26 of the Supporting Information, the degradation of the VA-based compound 4 can be appreciated from both analyses; however, an expected remarkable difference between the two methods was noted regarding the final concentration of the compound 4 at the end of the experiment. […]

[2] = Plasma stability assay, rat plasma; type: in vitro ADME, rat (Sprague Dawley); details: 37 °C; for remaining at 0.5 h, 1 μM / remaining at 2 h, 1 μM / remaining at 4 h, 1 μM: Sprague Dawley, read-out: Plasma stability (matrix: rat) % remaining; for remaining at 0.5 h, 1 μM: 30 min; for remaining at 2 h, 1 μM: 120 min
Procedure: (§1) The plasma stability assays were performed by Selvita SA (Krakow, Poland) following the protocol described in the Supporting Information. For the use of human plasma, consent was obtained from the subject or from the next of kin.
(§2) 9. Plasma stability assays
(§3) Protocol for full plasma assay: a stock solution of compounds 1-4 in DMSO was incubated in human (Anticoagulants: Na Heparin; Gender: Pooled; Cat. No: IPLANAH100ML; Lot: 37921; Supplier:
(§4) Innovative Research) and rat (Strain: Sprague Dawley; Anticoagulants: Na Heparin; Cat. No:
(§5) IGRTSDPLANAH100ML; Supplier: Innovative Research) plasma at a final concentration of 1 μM (final concentration of DMSO = 1 %). The samples were incubated at 37 °C with a shaking of 450 rpm. Aliquots of the samples were analyzed at time 0, 30 minutes, 2 and 4 hours by LC-MS/MS […]
(§6) The areas of the peak of the compounds 1-4 in the LC chromatogram were used to evaluate stability profile. The percentage of residual compounds 1-4 was calculated as the ratio between the area of the peak of the analyte and the area of the internal standard.
(§7) % residual compound = Area analyte ∙ 100
(§8) Table S7. LC-MS data of the stability assays in plasma extracts of compound 1.
(§9) Stability assays compound 1
(§10) Time Plasma stability Plasma stability S9 stability S9 stability
(§11) (min.) (matrix: rat) (matrix: human) Time (min.) (matrix: rat) (matrix: human) % remaining % remaining % remaining % remaining
(§12) Table S8. LC-MS data of the stability assays in plasma extracts of compound 2.
(§13) Stability assays compound 2

[3] = Plasma stability assay, human plasma; type: in vitro ADME; details: 37 °C; for remaining at 0.5 h, 1 μM / remaining at 2 h, 1 μM / remaining at 4 h, 1 μM: both sexes, read-out: Plasma stability (matrix: human) % remaining; for remaining at 0.5 h, 1 μM: 30 min; for remaining at 2 h, 1 μM: 120 min
Procedure: as §1, §2, §3, §4, §5, §6, §7, §8, §9, §10, §11, §12, §13

[4] = Liver S9 fraction stability assay, rat; type: in vitro ADME; details: 37 °C; for remaining at 0.5 h, 1 μM / remaining at 1.5 h, 1 μM: male, liver S9 fraction, read-out: S9 stability (matrix: rat) % remaining; for remaining at 0.5 h, 1 μM: 30 min
Procedure: as §1
9. Plasma stability assays […]
Protocol for S9 fraction: a stock solution of compounds 1-4 in DMSO was incubated in human (male, pooled, commercially obtained from Xeno-tech lot: 2310104) and rat (male, pooled, commercially obtained from Xeno-tech (lot: 2210317)) S9 fraction at a final concentration of 1 μM (final concentration of DMSO = 0.5 %). The samples were incubated at 37 °C with a shaking of 450 rpm.
Aliquots of the samples were analyzed at time 0, 30 and 90 minutes by LC-MS/MS analysis.
as §6, §7, §8, §9, §10, §11, §12, §13

Row | Compound | remaining at 0.5 h, 1 μM ([2]; rat, plasma) | remaining at 2 h, 1 μM ([2]; rat, plasma) | remaining at 4 h, 1 μM ([2]; rat, plasma, 240 min (4 h)) | remaining at 0.5 h, 1 μM ([3]; human, plasma) | remaining at 2 h, 1 μM ([3]; human, plasma) | remaining at 4 h, 1 μM ([3]; human, plasma, 240 min (4 h)) | remaining at 0.5 h, 1 μM ([4]; rat) | remaining at 1.5 h, 1 μM ([4]; rat, 90 min (1.5 h)) | other results
1 | CC(=O)O[C@H]1C(=O)[C@@]2(C)[C@H]([C@H](OC(=O)c3ccccc3)[C@]3(O)C[C@H](OC(=O)[C@H](OC(=O)N(C)CCN(C)C(=O)OCc4ccc(NC(=O)[C@H](C)NC(=O)[C@@H](NC(=O)OCC5c6ccccc6-c6ccccc65)C(C)C)cc4)[C@@H](NC(=O)c4ccccc4)c4ccccc4)C(C)=C1C3(C)C)[C@]1(OC(C)=O)CO[C@@H]1C[C@@H]2O [Compound 4, Fmoc-VA-PABC-diamine-PTX] | 96.1% | 104% | 108% | 101% | 106% | 107% | 81.1% | 81.2% | % residual compound, HRMS ([1]; 30 min with Cathepsin B): 73.35%; % residual compound, HRMS ([1]; 60 min with Cathepsin B): 68.45%; % residual compound, HRMS ([1]; 120 min with Cathepsin B): 65.40%; % residual compound, HRMS ([1]; 240 min (4 h) with Cathepsin B): 63.70%; % residual compound, HPLC ([1]; 30 min with Cathepsin B): 25.11%; % residual compound, HPLC ([1]; 60 min with Cathepsin B): 20.48%; % residual compound, HPLC ([1]; 120 min with Cathepsin B): 13.68%; S9 stability (matrix: rat) % remaining ([4]; 1 μM, 90 min (1.5 h)): 81.17%
2 | CC(=O)O[C@H]1C(=O)[C@@]2(C)[C@H]([C@H](OC(=O)c3ccccc3)[C@]3(O)C[C@H](OC(=O)[C@H](OC(=O)N(C)CCN(C)C(=O)OCc4ccc(NC(=O)CNC(=O)[C@H](CC(C)C)NC(=O)[C@@H]5CCCN5C(=O)CNC(=O)OCC5c6ccccc6-c6ccccc65)cc4)[C@@H](NC(=O)c4ccccc4)c4ccccc4)C(C)=C1C3(C)C)[C@]1(OC(C)=O)CO[C@@H]1C[C@@H]2O [Compound 1, Fmoc-GPLG-PABC-diamine-PTX] (Fmoc-GPLG[PABC]-{Paclitaxel(2'-OCO-DMEDA)}) | 98.1% | 111% | 103% | 98.9% | 117% | 112% | 88.8% | 94.5% | Plasma stability (matrix: rat) % remaining ([2]; 1 μM, 240 min (4 h)): 100%; Plasma stability (matrix: human) % remaining ([3]; 1 μM, 240 min (4 h)): 100%
3 | CC(=O)O[C@H]1C(=O)[C@@]2(C)[C@H]([C@H](OC(=O)c3ccccc3)[C@]3(O)C[C@H](OC(=O)[C@H](OC(=O)N(C)CCN(C)C(=O)OCc4ccc(NC(=O)CNC(=O)[C@H](CC(C)C)NC(=O)[C@H](Cc5ccccc5)NC(=O)CNC(=O)OCC5c6ccccc6-c6ccccc65)cc4)[C@@H](NC(=O)c4ccccc4)c4ccccc4)C(C)=C1C3(C)C)[C@]1(OC(C)=O)CO[C@@H]1C[C@@H]2O [Compound 2, Fmoc-GFLG-PABC-diamine-PTX] (Fmoc-GFLG[PABC]-{Paclitaxel(2'-OCO-DMEDA)}) | 92.1% | 99% | 103% | 102% | 104% | 93.9% | 72.8% | 61.8% | –
4 | CC(=O)O[C@H]1C(=O)[C@@]2(C)[C@H]([C@H](OC(=O)c3ccccc3)[C@]3(O)C[C@H](OC(=O)[C@H](OC(=O)N(C)CCN(C)C(=O)OCc4ccc(NC(=O)[C@H](CCCNC(N)=O)NC(=O)[C@@H](NC(=O)OCC5c6ccccc6-c6ccccc65)C(C)C)cc4)[C@@H](NC(=O)c4ccccc4)c4ccccc4)C(C)=C1C3(C)C)[C@]1(OC(C)=O)CO[C@@H]1C[C@@H]2O [Compound 3, Fmoc-VCit-PABC-diamine-PTX] | – | – | – | – | – | – | – | – | remaining at 0.5 h, 1 μM [2]: 123%; remaining at 2 h, 1 μM [2]: 113%; remaining at 4 h, 1 μM ([2]; 240 min (4 h)): 118%; remaining at 0.5 h, 1 μM [3]: 102%; remaining at 2 h, 1 μM [3]: 98.3%; remaining at 4 h, 1 μM ([3]; 240 min (4 h)): 77.1%; remaining at 0.5 h, 1 μM [4]: 86.5%; remaining at 1.5 h, 1 μM ([4]; 90 min (1.5 h)): 42.6%
